The results in this text go back to the supplement of paper PMC5998384.

Data set [1] has as its system HeLa Kyoto. In words: melting temperature (median over replicates), in situ; higher = more thermally stable.
Data set [2] relates to HeLa Kyoto. As to the kind of experiment: solubility in G1/S (NP-40 vs SDS abundance) (log2 ratio); higher = more soluble. The conditions noted are these: cell cycle stage: G1/S.
Data set [3] has as its system HeLa Kyoto. As to the kind of experiment: solubility change mitosis vs G1/S (difference of NP-40 vs SDS log2 ratios) (log2 ratio difference); higher = more soluble in mitosis.
Data set [4] has as its system HeLa Kyoto. As to the kind of experiment: thermal stability score vs G1/S (z-score of summed log2 fold changes over temperatures); higher = more thermally stable than in G1/S.
[5] abbreviates: cell cycle stage: early G1 (4.5 h after nocodazole release).
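Wherever melting temperature (median over replicates), in situ is given: HeLa Kyoto cells synchronized by double thymidine or nocodazole block, proteins quantified by TMT10plex mass spectrometry, three independent biological replicates.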
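Wherever solubility change mitosis vs G1/S (difference of NP-40 vs SDS log2 ratios) is given: synchronized HeLa Kyoto cells (double thymidine block for G1/S, nocodazole release for mitosis), protein amounts in NP-40 versus SDS lysates quantified by mass spectrometry, three biological replicates.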
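Wherever solubility in G1/S (NP-40 vs SDS abundance) is given: HeLa Kyoto cells arrested at G1/S by double thymidine block, proteins quantified by TMT10plex mass spectrometry in mild NP-40 versus SDS extracts, three biological replicates.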
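Wherever thermal stability score vs G1/S (z-score of summed log2 fold changes over temperatures) is given: synchronized HeLa Kyoto cells, proteins quantified by TMT10plex mass spectrometry, three biological replicates, mitosis taken 0.5 h after nocodazole release, G1/S directly after double thymidine block.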

On to “MKLIILEHYSQASEWAAKYIRNRIIQFNPGPEKYFTLGLPTGSTPLGCYKKLIEYYKNGDLSFKYVKTFNMDEYVGLPRDHPESYHSFMWNNFFKHIDIHPENTHILDGNAVDLQAECDAFEEKIKAAGGIELFVGGIGPDGHIAFNEPGSSLVSRTRVKTLAMDTILANARFFDGELTKVPTMALTVGVGTVMDAREVMILITGAHKAFALYKAIEEGVNHMWTVSAFQQHPRTVFVCDEDATLELKVKTVKYFKGLMLVHNKLVDPLYSIKEKETEKSQSSKKPYSD [GNPDA1]”, for which the figures for the melting temperature in the data set with HeLa Kyoto [1] (cell cycle stage: G1/S) and in the data set on HeLa Kyoto [1] (cell cycle stage: mitosis) were 61.5 °C and 62.9 °C, respectively. Moreover, the “solubility in G1/S (log2)” value in the data set on HeLa Kyoto [2] was found to be 0.183. Further, the “solubility change mitosis (log2)” value in the data set with HeLa Kyoto [3] was -0.206. For the same sequence, the thermal stability score is -0.841 in the data set on HeLa Kyoto [4] (setting [5]) and -0.7 in the data set with HeLa Kyoto [4] (cell cycle stage: mitosis).
“MKLKDTKSRPKQSSCGKFQTKGIKVVGKWKEVKIDPNMFADGQMDDLVCFEELTDYQLVSPAKNPSSLFSKEAPKRKAQAVSEEEEEEEGKSSSPKKKIKLKKSKNVATEGTSTQKEFEVKDPELEAQGDDMVCDDPEAGEMTSENLVQTAPKKKKNKGKKGLEPSQSTAAKVPKKAKTWIPEVHDQKADVSAWKDLFVPRPVLRALSFLGFSAPTPIQALTLAPAIRDKLDILGAAETGSGKTLAFAIPMIHAVLQWQKRNAAPPPSNTEAPPGETRTEAGAETRSPGKAEAESDALPDDTVIESEALPSDIAAEARAKTGGTVSDQALLFGDDDAGEGPSSLIREKPVPKQNENEEENLDKEQTGNLKQELDDKSATCKAYPKRPLLGLVLTPTRELAVQVKQHIDAVARFTGIKTAILVGGMSTQKQQRMLNRRPEIVVATPGRLWELIKEKHYHLRNLRQLRCLVVDEADRMVEKGHFAELSQLLEMLNDSQYNPKRQTLVFSATLTLVHQAPARILHKKHTKKMDKTAKLDLLMQKIGMRGKPKVIDLTRNEATVETLTETKIHCETDEKDFYLYYFLMQYPGRSLVFANSISCIKRLSGLLKVLDIMPLTLHACMHQKQRLRNLEQFARLEDCVLLATDVAARGLDIPKVQHVIHYQVPRTSEIYVHRSGRTARATNEGLSLMLIGPEDVINFKKIYKTLKKDEDIPLFPVQTKYMDVVKERIRLARQIEKSEYRNFQACLHNSWIEQAAAALEIELEEDMYKGGKADQQEERRRQKQMKVLKKELRHLLSQPLFTESQKTKYPTQSGKPPLLVSAPSKSESALSCLSKQKKKKTKKPKEPQPEQPQPSTSAN [DDX24]”: the figures for the melting temperature in the data set on HeLa Kyoto [1] (cell cycle stage: G1/S) and with HeLa Kyoto [1] (cell cycle stage: mitosis) were 49.9 °C and 50.5 °C, respectively. Besides, the “solubility in G1/S (log2)” value with HeLa Kyoto [2] is -1.47. For the same sequence, the “solubility change mitosis (log2)” value in the data set with HeLa Kyoto [3] amounted to 1.07. In addition, the thermal stability score with HeLa Kyoto [4] (setting [5]) is -0.338; in the data set on HeLa Kyoto [4] (cell cycle stage: mitosis), 1.04.
Consider “MKLKEVDRTAMQAWSPAQNHPIYLATGTSAQQLDATFSTNASLEIFELDLSDPSLDMKSCATFSSSHRYHKLIWGPYKMDSKGDVSGVLIAGGENGNIILYDPSKIIAGDKEVVIAQNDKHTGPVRALDVNIFQTNLVASGANESEIYIWDLNNFATPMTPGAKTQPPEDISCIAWNRQVQHILASASPSGRATVWDLRKNEPIIKVSDHSNRMHCSGLAWHPDVATQMVLASEDDRLPVIQMWDLRFASSPLRVLENHARGILAIAWSMADPELLLSCGKDAKILCSNPNTGEVLYELPTNTQWCFDIQWCPRNPAVLSAASFDGRISVYSIMGGSTDGLRQKQVDKLSSSFGNLDPFGTGQPLPPLQIPQQTAQHSIVLPLKKPPKWIRRPVGASFSFGGKLVTFENVRMPSHQGAEQQQQQHHVFISQVVTEKEFLSRSDQLQQAVQSQGFINYCQKKIDASQTEFEKNVWSFLKVNFEDDSRGKYLELLGYRKEDLGKKIALALNKVDGANVALKDSDQVAQSDGEESPAAEEQLLGEHIKEEKEESEFLPSSGGTFNISVSGDIDGLITQALLTGNFESAVDLCLHDNRMADAIILAIAGGQELLARTQKKYFAKSQSKITRLITAVVMKNWKEIVESCDLKNWREALAAVLTYAKPDEFSALCDLLGTRLENEGDSLLQTQACLCYICAGNVEKLVACWTKAQDGSHPLSLQDLIEKVVILRKAVQLTQAMDTSTVGVLLAAKMSQYANLLAAQGSIAAALAFLPDNTNQPNIMQLRDRLCRAQGEPVAGHESPKIPYEKQQLPKGRPGPVAGHHQMPRVQTQQYYPHGENPPPPGFIMHGNVNPNAAGQLPTSPGHMHTQVPPYPQPQPYQPAQPYPFGTGGSAMYRPQQPVAPPTSNAYPNTPYISSASSYTGQSQLYAAQHQASSPTSSPATSFPPPPSSGASFQHGGPGAPPSSSAYALPPGTTGTLPAASELPASQRTGPQNGWNDPPALNRVPKKKKMPENFMPPVPITSPIMNPLGDPQSQMLQQQPSAPVPLSSQSSFPQPHLPGGQPFHGVQQPLGQTGMPPSFSKPNIEGAPGAPIGNTFQHVQSLPTKKITKKPIPDEHLILKTTFEDLIQRCLSSATDPQTKRKLDDASKRLEFLYDKLREQTLSPTITSGLHNIARSIETRNYSEGLTMHTHIVSTSNFSETSAFMPVLKVVLTQANKLGV [SEC31A]”, for which the melting temperature with HeLa Kyoto [1] (cell cycle stage: G1/S) was determined as 48.9 °C; in the data set on HeLa Kyoto [1] (cell cycle stage: mitosis), 50 °C. The “solubility in G1/S (log2)” value in the data set with HeLa Kyoto [2] is 0.0843. Also, the “solubility change mitosis (log2)” value with HeLa Kyoto [3] is -0.144. The thermal stability score with HeLa Kyoto [4] (setting [5]) came to 1.55; with HeLa Kyoto [4] (cell cycle stage: mitosis), 4.43.
Take “MKLKQRVVLLAILLVIFIFTKVFLIDNLDTSAANREDQRAFHRMMTGLRVELAPKLDHTLQSPWEIAAQWVVPREVYPEETPELGAVMHAMATKKIIKADVGYKGTQLKALLILEGGQKVVFKPKRYSRDHVVEGEPYAGYDRHNAEVAAFHLDRILGFHRAPLVVGRFVNLRTEIKPVATEQLLSTFLTVGNNTCFYGKCYYCRETEPACADGDIMEGSVTLWLPDVWPLQKHRHPWGRTYREGKLARWEYDESYCDAVKKTSPYDSGPRLLDIIDTAVFDYLIGNADRHHYESFQDDEGASMLILLDNAKSFGNPSLDERSILAPLYQCCIIRVSTWNRLNYLKNGVLKSALKSAMAHDPISPVLSDPHLDAVDQRLLSVLATVKQCTDQFGMDTVLVEDRMPLSHL [FAM20B]”: the results for the melting temperature in the data set on HeLa Kyoto [1] (cell cycle stage: G1/S) and in the data set on HeLa Kyoto [1] (cell cycle stage: mitosis) were 51.8 °C and 53.3 °C, respectively. Moreover, in the data set on HeLa Kyoto [2], the “solubility in G1/S (log2)” value is -0.162. In addition, the “solubility change mitosis (log2)” value in the data set with HeLa Kyoto [3] amounted to 0.0415. Moreover, the thermal stability score with HeLa Kyoto [4] (setting [5]) turned out to be 2.65; with HeLa Kyoto [4] (cell cycle stage: mitosis), 2.53.
Turning to “MKLSLTKVVNGCRLGKIKNLGKTGDHTMDIPGCLLYTKTGSAPHLTHHTLHNIHGVPAMAQLTLSSLAEHHEVLTEYKEGVGKFIGMPESLLYCSLHDPVSPCPAGYVTNKSVSVWSVAGRVEMTVSKFMAIQKALQPDWFQCLSDGEVSCKEATSIKRVRKSVDRSLLFLDNCLRLQEESEVLQKSVIIGVIEGGDVMEERLRSARETAKRPVGGFLLDGFQGNPTTLEARLRLLSSVTAELPEDKPRLISGVSRPDEVLECIERGVDLFESFFPYQVTERGCALTFSFDYQPNPEETLLQQNGTQEEIKCMDQIKKIETTGCNQEITSFEINLKEKKYQEDFNPLVRGCSCYCCKNHTRAYIHHLLVTNELLAGVLLMMHNFEHYFGFFHYIREALKSDKLAQLKELIHRQAS [QTRTD1]”, the melting temperature amounted to 54.6 °C with HeLa Kyoto [1] (cell cycle stage: G1/S) and 54.3 °C with HeLa Kyoto [1] (cell cycle stage: mitosis). Besides, the “solubility in G1/S (log2)” value in the data set with HeLa Kyoto [2] turned out to be 0.116. Moreover, the “solubility change mitosis (log2)” value in the data set on HeLa Kyoto [3] is -0.121. For the same sequence, the thermal stability score is -0.725 in the data set on HeLa Kyoto [4] (setting [5]) and -2.32 with HeLa Kyoto [4] (cell cycle stage: mitosis).
